Drawing on the supplement of paper PMC12042874, this text covers amyloid nucleation score for 137 substances.

± gives the uncertainty stated by the source.

One data set in a line: amyloid nucleation score (Sup35N fusion, yeast selection) (log enrichment); library NNK1; higher = more nucleation; inactive = no reads after selection. In a few lines: (§1)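 The nucleation score is a DiMSum log enrichment of output over input reads, centred on the mode score of non-aggregating sequences. Sequences under 100 input reads were excluded, and reads came from Illumina sequencing of plasmid inserts. Psi-negative yeast expressing Sup35N fused to peptides of 20 random codons were induced with 100 μM copper sulfate for 24 hours and grown 7 days at 30°C on medium lacking adenine and uracil. Random libraries had three technical output replicates.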
Take SLCHAFYSVNNLAFCHSFTP: the amyloid nucleation score came to 6.539 ± 0.061. GPLKPFNASLVGTGAVLHGE displayed an amyloid nucleation score of 0.034 ± 0.52.

Turning to VKESRCCSYGTVRSISQGLG, the amyloid nucleation score was -0.512 ± 0.89.

With LVRYLCVPSFGKAGYDGEGE, the amyloid nucleation score is -0.86 ± 0.79. Same read-out and setting: then SVFWDLTSDWAKIGVKK, with -1.03 ± 0.89; and YRIHKIIKEPAEVTSLLRW, with -0.813 ± 0.52. On the same count and under the same terms, the result for PPETRTPVINRSLSIEFDPK reads -0.022 ± 0.68. The same measure, in the same setting: then TCLKFDSPMNCKGLSSLDMM, with -0.496 ± 0.38; and KGGPRPQMC, with -0.244 ± 0.27; and MCFDGICMNWWVR, with 2.96 ± 0.086. WCGLARREKCRMPNGHRVHI showed an amyloid nucleation score of -0.497 ± 0.48. In turn, VRIILWTMDVIFRLMFTRDQ returned an amyloid nucleation score of 0.41 ± 0.51. Still for that read-out and setting: the result for IYCEEFMLEMTSRIRV reads -0.976 ± 0.47; that for PSIHTFCTAL, 0.318 ± 0.33; that for PIDGLPGASFGLGFQCGVGM, 0.527 ± 0.76. On the same count and under the same terms, the result for YARSSFEDIVVFRDRFG reads 5.47 ± 0.092. As for VVFSWRIDSFGREEKGA, the amyloid nucleation score amounted to 0.349 ± 0.81.

The substance RWYWIF showed an amyloid nucleation score of 4.6 ± 0.069. On the same count and under the same terms, then SCFPLLRQFAGWLSWSRT, with 2.28 ± 0.18; and ETHGYFVYVFVCGRWAGMK, with -0.114 ± 0.28; and VKYSVENCMITWDVYMGASL, with -0.561 ± 0.29. On the same count and under the same terms, the result for NICVFNEFKVYNAYTVYWGW reads 5.801 ± 0.054; that for VQVQVGSFELNSGQRRSVLK, -0.516 ± 1.3; that for MLIRWNSYTGHIGWIFSGKA, 0.94 ± 0.19. Turning to FLSCFDILLHGVSYNSFQYW, the amyloid nucleation score came to 0.54 ± 0.42. On the same count and under the same terms, the result for NLSGSFPN reads -0.2 ± 0.92.

The nature of another data set: amyloid nucleation score (Sup35N fusion, yeast selection) (log enrichment); library NNK2; higher = more nucleation; inactive = no reads after selection. An outline of the steps:
as §1
In turn, HIARCNNWNACLMSRRHNCW showed an amyloid nucleation score of 3.6 ± 0.061. With RPNFFVLNSNMNNYVQARVP, the amyloid nucleation score stood at 4.59 ± 0.047.

Take DPTGIGWIKEQSLVCCGGVS: the amyloid nucleation score turned out to be 2.84 ± 0.081. NHLLMGGGHKDAVGQSVFGI came in with an amyloid nucleation score of 0.074 ± 0.74. As to DDWEVRN, the amyloid nucleation score worked out at 0.231 ± 0.31. On the same count and under the same terms, then YFWTFTSWQTTGRCHSP, with 0.521 ± 0.17. For GGWRVSGNTSRSISRPCWRG, the amyloid nucleation score amounted to 0.483 ± 0.27. As to LFSVVLVGGARRSYLRGGPG, the amyloid nucleation score amounted to 0.611 ± 0.81.

Take CFLMNKVT: the amyloid nucleation score was -1.5 ± 0.49. On the same count and under the same terms, the result for RSHMYSGYIYLIQKTFLREV reads -1.29 ± 0.26; that for PLGYGMGLRGLFGLLDSYFG, 0.19 ± 0.8.

In turn, SKGSGICRRISTEYDGVGQS gave an amyloid nucleation score of 0.6 ± 0.42. The same measure, in the same setting: the result for FKKTLTGCYGGGRGAMNNGK reads “inactive”. The substance GVVARSIVAGNLALIIRRRM registered an amyloid nucleation score of 0.253 ± 0.42. LYWRKTVITIEWSCSGGNLR yielded an amyloid nucleation score of 0.278 ± 0.27. The same measure, in the same setting: the result for LNLLADNTLYGDSSYVGYLR reads 0.021 ± 0.4; that for RGVGYYRGSICTWFNWAAMW, 1.83 ± 0.16. On the same count and under the same terms, the result for WHGRWSTNRRRPPNKMCRLV reads 1.06 ± 0.28. Turning to HAVWSVFCEFIVRQCYGLYF, the amyloid nucleation score was -1.37 ± 0.41. The same measure, in the same setting: then HTTLHSSAIQVWSWRLLYFV, with 5.061 ± 0.049. WVSGLPHNYNSSFSTAINFS returned an amyloid nucleation score of 0.907 ± 0.3. Still for that read-out and setting: then LSHSDVKRALKWNCFPIGVC, with -0.158 ± 0.28; and TCRTSTRRPIGWLSWYVG, with 0.654 ± 0.43; and NDKSFSMLATE, with 0.707 ± 0.46. Still for that read-out and setting: then LSWYLTYTRLTSLVG, with -0.097 ± 0.42; and GPCSSGSDSTCQMPCLAWPG, with 0.74 ± 0.51; and LLFSG, with 1.62 ± 0.32. GVGVLGVLNYVCWLMQCCGL yielded an amyloid nucleation score of 0.987 ± 0.22. The substance SSPLPQSCERNRVLRTRLGF came in with an amyloid nucleation score of 0.874 ± 0.45. As for NRFDDVSDDVKTCC, the amyloid nucleation score came to 5.82 ± 0.059. With LSVCVRHEDGGSIAVECGS, the amyloid nucleation score was 0.242 ± 0.77.

Substance NTTQAV registered an amyloid nucleation score of -0.249 ± 1. In the case of TSVLA, the amyloid nucleation score was -1 ± 1.1.

As to SSASTRDEKGGSGALERERC, the amyloid nucleation score was -0.243 ± 1.1. On the same count and under the same terms, the result for PGRDTVTLLHLCHFGVGSGF reads 0.165 ± 1. As for DECAVPRSE, the amyloid nucleation score is 0.7 ± 0.51. Still for that read-out and setting: the result for WVKENI reads -0.234 ± 0.65; that for FGKNLTRMSDGGTVVPLRRN, 0.255 ± 0.8; that for NCYFKLSYEDMIRQCKRLNE, 3.44 ± 0.069.

In turn, VNRPATPFEGSQCLIIYSRV came in with an amyloid nucleation score of -0.613 ± 0.45. Same read-out and setting: the result for IFRDNVYFIE reads -0.692 ± 1. On the same count and under the same terms, the result for ECVRTLFYKLMTFAWLELRS reads -1.02 ± 0.76; that for VLEGIYLLMKVCLIYPRSYD, -1.8 ± 1.1; that for KGNHRRVKTSIYNFFKVSNC, 0.445 ± 0.29.

The substance IVSSSNFFKLMYCMFILRIS gave an amyloid nucleation score of 0.247 ± 1. On the same count and under the same terms, the result for PSQVL reads 0.992 ± 0.52. Still for that read-out and setting: then DCQMRDNASVNIIVRFQYVY, with 5.08 ± 0.082; and RWPNLSDAQVWAPTSQLLSS, with 0.92 ± 0.32; and FEGSLPVPDGEEAWCAQRMS, with -0.006 ± 0.45.

VKSTYAYPPNVVDPHIGWGH gave an amyloid nucleation score of 0.99 ± 0.24. In turn, GAGPEEPDSLDEVIVT showed an amyloid nucleation score of 0.202 ± 0.3. Still for that read-out and setting: then LDLRMRYQVPYQWGTNSAEN, with 0.629 ± 0.48; and YSLLCWVYIRSLNSLNKCCG, with 3.15 ± 0.075. Same read-out and setting: then LYCRTPFCTMTLELMKMTL, with 0.128 ± 0.24; and LKYIPRWVGTSLLQRKLCDF, with -0.711 ± 1.1; and CPMPITRSAVFACTITCSVA, with 5.99 ± 0.079. In turn, YAFQW had an amyloid nucleation score of 0.152 ± 0.77. WGVCSQGYNVRIRVVARQKF: the amyloid nucleation score entry is “inactive”. Still for that read-out and setting: the result for MLANTYDSEPSRHRCVGKPI reads 0.754 ± 0.44. Regarding SSLRLDIVRTVHYSQIPEDA, the amyloid nucleation score amounted to 1.04 ± 0.33. YRRYVLTL: the amyloid nucleation score turned out to be 0.057 ± 0.76. The same measure, in the same setting: then IDILTVICVPEIYNWFLMQY, with -0.842 ± 0.35. With SFRLISRVLRCNMIQ, the amyloid nucleation score was -0.881 ± 0.37. Same read-out and setting: then KFNCLGLWDEYHNSM, with 0.259 ± 0.43; and TLDFCEL, with “inactive”. Same read-out and setting: then SEENYGRYLAMEVYNYSQAL, with “inactive”. The same measure, in the same setting: then KWYICLKIIQWNCISDQC, with 5.38 ± 0.054; and ARVRVYRWWTLATTWGRVGF, with 2.85 ± 0.14. GRCTGLLCLALVVIYQ showed an amyloid nucleation score of 0.358 ± 0.39. Take SNRLRVVQ: the amyloid nucleation score was -0.069 ± 0.32. In turn, IRYWLNERMVSDRRTVTGGV gave an amyloid nucleation score of 7.47 ± 0.077.

In the case of MRLNYVYGCSFLDRIGT, the amyloid nucleation score came out at 0.57 ± 0.33. For the substance QYVSLYAVKRIVEIVQDKCA, the amyloid nucleation score was determined as 0.012 ± 0.39.

FFDSLGAGRYNRIRRWLSVV registered an amyloid nucleation score of -1.33 ± 0.44. In the case of NGVRYYFRVRGSMTRLNEAE, the amyloid nucleation score worked out at 0.276 ± 1.

The substance TSDITAVFNSFLKFR registered an amyloid nucleation score of -0.744 ± 0.74. Still for that read-out and setting: then RLYKSARVASHVDLGCTFRC, with 1.35 ± 0.18; and SAIKYIGILAMRDQDQASQI, with -1.59 ± 0.62. Consider IVLNVYMRKTKQV, for which the amyloid nucleation score is 0.078 ± 0.29.

EYNRTLWSCYHWFVHVPPTN showed an amyloid nucleation score of -0.171 ± 1. With ASSSGPGCSLVSSVHASRQG, the amyloid nucleation score amounted to 1.54 ± 0.52.

As for TKSVVLMNSMSS, the amyloid nucleation score worked out at 0.072 ± 1.1. FAPSSIDFYRGSKNGLFTAQ gave an amyloid nucleation score of -0.302 ± 0.4. Still for that read-out and setting: then LSKLYTLVRNV, with -0.576 ± 0.63; and RGYACCL, with -0.574 ± 0.48.

Take QTCCTSNEQEFVALA: the amyloid nucleation score was determined as 0.414 ± 0.32.

In turn, GYMRSLGHYSADVMEYLYNW had an amyloid nucleation score of 0.052 ± 0.45.

Turning to GCRGHFMYRTW, the amyloid nucleation score entry is “inactive”.

In the case of HVRHGESLFFANQA, the amyloid nucleation score was -0.038 ± 1.1. For LFLSGKEIPMNVFTIVCTDP, the amyloid nucleation score result was “inactive”. Still for that read-out and setting: then FHGPKYMSILRGELICKAPG, with “inactive”; and IKGGRQAYNPTLGEVRGCAR, with 2.93 ± 0.13; and VRFFYSFVPT, with “inactive”.

Take NGWKYLYIWFPAICSCFMRG: the amyloid nucleation score is -0.213 ± 0.24. On the same count and under the same terms, the result for DLLHETML reads -0.781 ± 1.1. As for DQIEIISLKNCTVG, the amyloid nucleation score entry was “inactive”. The same measure, in the same setting: the result for SLLGLNFCSMLAIL reads 3.23 ± 0.075; that for FRRCGPDGGIWLDLAACKKI, 0.1 ± 0.38; that for IQPQSSVVERGQMNMVGPTP, 1.49 ± 0.12. Still for that read-out and setting: then TFMMLMEHGRIYFLWASPVA, with -1.68 ± 1.1; and VTNCLTIWAFMGSRRCWKAP, with 3.62 ± 0.11.

In the case of YFNSSVLILVVWLLY, the amyloid nucleation score result was “inactive”.

The substance NYWCMVV displayed an amyloid nucleation score of 5.24 ± 0.075.

Consider ADRYMHSTHVDNCPYAGFTS, for which the amyloid nucleation score worked out at 0.444 ± 0.44. For the substance HGGSVWRRHSVFNAICISSS, the amyloid nucleation score was 1.11 ± 0.18. On the same count and under the same terms, the result for KDAFT reads -0.895 ± 0.49. For the substance NDFWRYV, the amyloid nucleation score was -0.591 ± 0.24.

The substance HGAVRSLSGGHIDRELVCD showed an amyloid nucleation score of 0.566 ± 0.74. FCVCARWCIVVSGLVCDLRY yielded an amyloid nucleation score of -0.323 ± 0.63. Consider QFVHRYGDHNAGVLPSYRKS, for which the amyloid nucleation score turned out to be 5.22 ± 0.066.

GSLMRFDSWLGGTIASS: the amyloid nucleation score was found to be 0.402 ± 0.66.
